The source of these data is publication PMC9700851, “Interaction kinetics between p115-RhoGEF and Gα13 are determined by unique molecular interactions affecting agonist sensitivity” (Communications Biology, 2022).

Numbering of substitutions follows the chain as printed.

Assay in all cases: FRET or BRET; single-cell FRET in intact HEK293T cells co-transfected with TPα receptor, Gβ1 and Gγ2; donor mTurquoise2 (or CFP) on the Gα subunit, acceptor YFP on the RhoGEF; F535/F480 emission ratio on superfusion with the agonist U-46619 and after its washout (AUC of decay over the 10 min washout); room temperature, buffer pH 7.3
In general terms: BRET reads energy transfer from a luciferase to a nearby fluorophore.

The target of experiment [1] is Gα13-mTurq2 (mTurquoise2 between amino acids 127 and 128) (mouse) (UniProt P27601).
Experiment [2] concerns the target Gα13(135) (mTurquoise2 between amino acids 135 and 136) (mouse) (UniProt P27601).
The target in a further experiment is Gα13(135)R128A (mouse) (UniProt P27601).
A further experiment addresses T1, Gα13(135)R128A (mouse, UniProt P27601 1-377, R128A).
T1 construct: Gα13, mouse; also called Gα13-R128A; source: HEK293T, transfected, in intact cells
T1 sequence (looked up): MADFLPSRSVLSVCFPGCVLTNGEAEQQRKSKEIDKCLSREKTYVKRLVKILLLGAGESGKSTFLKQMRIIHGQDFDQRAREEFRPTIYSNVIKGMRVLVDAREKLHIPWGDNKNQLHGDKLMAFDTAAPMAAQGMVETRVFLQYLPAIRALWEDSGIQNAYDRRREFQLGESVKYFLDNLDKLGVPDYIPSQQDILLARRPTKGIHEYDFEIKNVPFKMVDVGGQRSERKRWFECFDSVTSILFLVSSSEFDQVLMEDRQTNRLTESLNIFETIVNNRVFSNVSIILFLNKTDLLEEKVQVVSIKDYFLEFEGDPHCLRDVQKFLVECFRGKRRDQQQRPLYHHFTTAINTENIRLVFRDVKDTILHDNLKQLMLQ

Experiment [3] deals with T2, Gα13-mTurq2 (mTurquoise2 between amino acids 127 and 128) (mouse, UniProt P27601 1-377).
T2 construct: Gα13, mouse; co-expressed with human TPα receptor, human Gβ1 and bovine Gγ2; also called Gα13(127); mTurq2-Gα13; source: HEK293T, transfected, in intact cells; not shown: mTurquoise2, internal (after residue 127), kept
T2 sequence (looked up): T1 sequence (looked up) with A128R
To be noted: partners not purified.

For experiment [4], the target named is T3, Gα13(135) (mTurquoise2 between amino acids 135 and 136) (mouse, UniProt P27601 1-377).
T3 construct: Gα13, mouse; Gibson assembly; also called wt-Gα13; source: HEK293T, transfected, in intact cells
T3 sequence (looked up): T1 sequence (looked up) with A128R
To be noted: partners not purified.

In the case of “Chimera1 (p115-RhoGEF amino acids 1-232 and LARG amino acids 559-1544) (from UniProt Q61210 1-232; Q9NZN5 559-1544)”, the mean AUC of decay of the FRET signal after agonist washout (arbitrary unit) in experiment [1] turned out to be 270.

Consider “Chimera 2 (full length p115 with the RH domain of LARG, amino acids 370-558, instead of p115 amino acids 44-232) (from UniProt Q61210 1-43; Q9NZN5 370-558; Q61210 233-912)”, for which the mean AUC of decay of the FRET signal after agonist washout (arbitrary unit) in experiment [1] stood at 274. On to “Chimera 3 (full length LARG with the RH domain of p115, amino acids 44-232, instead of LARG amino acids 370-558) (from UniProt Q9NZN5 1-369; Q61210 44-232; Q9NZN5 559-1544)”, for which, in experiment [1], the mean AUC of decay of the FRET signal after agonist washout (arbitrary unit) amounted to 404. Regarding “eYFP-p115-RhoGEF (from UniProt Q61210 1-920) (natural protein)”, the values for the mean AUC of decay of the FRET signal after agonist washout (arbitrary unit) (in experiment [2]; with Gα13(135)R128A (mouse); in experiment [1]) were 284, 417 and 331, respectively. Turning to “p115-E32G (from UniProt Q61210 1-920) (natural protein)”, the mean AUC of decay of the FRET signal after agonist washout (arbitrary unit) was determined as 453 in experiment [2], 468 in experiment [1] and 444 in the experiment with Gα13(135)R128A. As to “p115-R (p115-RhoGEF amino acids 1-245) (from UniProt Q61210 1-245) (domain or fragment)”, in experiment [1], the mean AUC of decay of the FRET signal after agonist washout (arbitrary unit) stood at 343. For the molecule “p115-Rshort (p115-RhoGEF amino acids 34-235) (from UniProt Q61210 34-235) (domain or fragment)”, in experiment [1], the mean AUC of decay of the FRET signal after agonist washout (arbitrary unit) amounted to 444.

B1: LARG-PR (LARG amino acids 1-558) (domain or fragment, human, UniProt Q9NZN5 1-558, looked up)
chain: MSGTQSTITDRFPLKKPIRHGSILNRESPTDKKQKVERIASHDFDPTDSSSKKTKSSSEESRSEIYGLVQRCVIIQKDDNGFGLTVSGDNPVFVQSVKEDGAAMRAGVQTGDRIIKVNGTLVTHSNHLEVVKLIKSGSYVALTVQGRPPGSPQIPLADSEVEPSVIGHMSPIMTSPHSPGASGNMERITSPVLMGEENNVVHNQKVEILRKMLQKEQERLQLLQEDYNRTPAQRLLKEIQEAKKHIPQLQEQLSKATGSAQDGAVVTPSRPLGDTLTVSEAETDPGDVLGRTDCSSGDASRPSSDNADSPKSGPKERIYLEENPEKSETIQDTDTQSLVGSPSTRIAPHIIGAEDDDFGTEHEQINGQCSCFQSIELLKSRPAHLAVFLHHVVSQFDPATLLCYLYSDLYKHTNSKETRRIFLEFHQFFLDRSAHLKVSVPDEMSADLEKRRPELIPEDLHRHYIQTMQERVHPEVQRHLEDFRQKRSMGLTLAESELTKLDAERDKDRLTLEKERTCAEQIVAKIEEVLMTAQAVEEDKSSTMQYVILMYMKHLGVK
notes: LARG, human, with the PDZ and RH domains; source: HEK293T, transfected, in intact cells
B1: the “mean AUC of decay of the FRET signal after agonist washout” value in experiment [3] stood at 464 arbitrary unit.

B2: eYFP-human LARG (leukemia-associated RhoGEF) (natural protein, UniProt Q9NZN5 1-1544, looked up)
chain: MSGTQSTITDRFPLKKPIRHGSILNRESPTDKKQKVERIASHDFDPTDSSSKKTKSSSEESRSEIYGLVQRCVIIQKDDNGFGLTVSGDNPVFVQSVKEDGAAMRAGVQTGDRIIKVNGTLVTHSNHLEVVKLIKSGSYVALTVQGRPPGSPQIPLADSEVEPSVIGHMSPIMTSPHSPGASGNMERITSPVLMGEENNVVHNQKVEILRKMLQKEQERLQLLQEDYNRTPAQRLLKEIQEAKKHIPQLQEQLSKATGSAQDGAVVTPSRPLGDTLTVSEAETDPGDVLGRTDCSSGDASRPSSDNADSPKSGPKERIYLEENPEKSETIQDTDTQSLVGSPSTRIAPHIIGAEDDDFGTEHEQINGQCSCFQSIELLKSRPAHLAVFLHHVVSQFDPATLLCYLYSDLYKHTNSKETRRIFLEFHQFFLDRSAHLKVSVPDEMSADLEKRRPELIPEDLHRHYIQTMQERVHPEVQRHLEDFRQKRSMGLTLAESELTKLDAERDKDRLTLEKERTCAEQIVAKIEEVLMTAQAVEEDKSSTMQYVILMYMKHLGVKVKEPRNLEHKRGRIGFLPKIKQSMKKDKEGEEKGKRRGFPSILGPPRRPSRHDNSAIGRAMELQKARHPKHLSTPSSVSPEPQDSAKLRQSGLANEGTDAGYLPANSMSSVASGASFSQEGGKENDTGSKQVGETSAPGDTLDGTPRTLNTVFDFPPPPLDQVQEEECEVERVTEHGTPKPFRKFDSVAFGESQSEDEQFENDLETDPPNWQQLVSREVLLGLKPCEIKRQEVINELFYTERAHVRTLKVLDQVFYQRVSREGILSPSELRKIFSNLEDILQLHIGLNEQMKAVRKRNETSVIDQIGEDLLTWFSGPGEEKLKHAAATFCSNQPFALEMIKSRQKKDSRFQTFVQDAESNPLCRRLQLKDIIPTQMQRLTKYPLLLDNIAKYTEWPTEREKVKKAADHCRQILNYVNQAVKEAENKQRLEDYQRRLDTSSLKLSEYPNVEELRNLDLTKRKMIHEGPLVWKVNRDKTIDLYTLLLEDILVLLQKQDDRLVLRCHSKILASTADSKHTFSPVIKLSTVLVRQVATDNKALFVISMSDNGAQIYELVAQTVSEKTVWQDLICRMAASVKEQSTKPIPLPQSTPGEGDNDEEDPSKLKEEQHGISVTGLQSPDRDLGLESTLISSKPQSHSLSTSGKSEVRDLFVAERQFAKEQHTDGTLKEVGEDYQIAIPDSHLPVSEERWALDALRNLGLLKQLLVQQLGLTEKSVQEDWQHFPRYRTASQGPQTDSVIQNSENIKAYHSGEGHMPFRTGTGDIATCYSPRTSTESFAPRDSVGLAPQDSQASNILVMDHMIMTPEMPTMEPEGGLDDSGEHFFDAREAHSDENPSEGDGAVNKEEKDVNLRISGNYLILDGYDPVQESSTDEEVASSLTLQPMTGIPAVESTHQQQHSPQNTHSDGAISPFTPEFLVQQRWGAMEYSCFEIQSPSSCADSQSQIMEYIHKIEADLEHLKKVEESYTILCQRLAGSALTDKHSDKS
notes: LARG (leukemia-associated RhoGEF), human; also called YFP-LARG; wt-LARG; source: HEK293T, transfected, in intact cells; not shown: YFP, N-terminal, kept
Consider B2, for which the “mean AUC of decay of the FRET signal after agonist washout” value is 448 arbitrary unit in experiment [3], 462 arbitrary unit in experiment [4] and 495 arbitrary unit with Gα13(135)R128A (partners not purified).

B3: LARG-Rshort (LARG amino acids 360-561) (domain or fragment, human, UniProt Q9NZN5 360-561, looked up)
chain: TEHEQINGQCSCFQSIELLKSRPAHLAVFLHHVVSQFDPATLLCYLYSDLYKHTNSKETRRIFLEFHQFFLDRSAHLKVSVPDEMSADLEKRRPELIPEDLHRHYIQTMQERVHPEVQRHLEDFRQKRSMGLTLAESELTKLDAERDKDRLTLEKERTCAEQIVAKIEEVLMTAQAVEEDKSSTMQYVILMYMKHLGVKVKE
notes: LARG, human, RH domain without the region N-terminal to it; source: HEK293T, transfected, in intact cells
With B3, the “mean AUC of decay of the FRET signal after agonist washout” value in experiment [3] came out at 380 arbitrary unit.
